Biological target: GHR

EC50 (chemiluminescence value, ONE-Glo, HEK293-GHR cells)	Relative activity (%)	Substance
0.0126 µg/mL		Jintropin (commercially available rhGH drug, Changchun GeneScience Pharmaceutical Co., Ltd.) (from UniProt P01241) (ligand)
0.0686 µg/mL	18%	Polyethylene Glycol Recombinant Human Somatropin Injection (commercially available PEG-rhGH drug, Changchun GeneScience Pharmaceutical Co., Ltd.) (from UniProt P01241) (ligand)
0.012 µg/mL		rhGH standard product of National Institutes for Food and Drug Control (from UniProt P01241) (ligand)

— patent publication US20250270167A1
